The results in this text go back to the nanobody polyreactivity screen of Harvey et al. (2022).

This series is described as follows: yeast display, Sf9 membrane polyspecificity reagent, FACS + sequencing; frameworks hold sequencing errors. The method in brief: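 Galactose induction of a Saccharomyces cerevisiae BJ5465 synthetic nanobody display library ran 36–48 hours. The cells were then stained for 1 hour at 4 °C with 10% biotinylated, detergent-solubilized Sf9 membrane reagent, pulled down on streptavidin microbeads and FACS-sorted into low and high (top ~1%) gates on expression and reagent-binding fluorescence. Labels for polyreactivity follow the gate of origin.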
Take “QVQLVESGGGLVQAGGSLRLSCAASGSIFEWYAMGLYRQAPGKETELVAAISSGGRTYYADSVKGRFTISRDNAKNTVYLQMNSLKPEDTAVYYCAGRDVDHVGGSKYYYWGQGTQVTVSS”: the “polyreactivity (PSR sort gate)” value is listed as “high polyreactivity”. The same measure for “QVQLVESGGGLVQAGGSLRLSCAASGSIFEWYAMGWYRQAPGKERELVAAIDISGGDTYYADSVKGRFTISHDNAKNNVYLQRNSLKPEDTAVYYCAATRPASYAAYDYWGQGTQVTVSS”: “high polyreactivity”; for “QVQLVESGGGLVQAGGSLRLSCAASGSIFEWYAMGWYRQAPGKERELVADITYNGGSTYYADSVKGRFTISRDNAKNTVYLQMNSLKPEDTAVYYCAADYFVQVPDYYYASEYGYWGQATQVTVSS”: “low polyreactivity”; for “QVQLVESGGGLVQAGGSLRLSCAASGSIFEWYAMGWYRQAPGKVRELVADITYNGGSTYYADSVKGRFTISRDNAKNTVYLQMNSLKPEDTAVYYCAADYFVQVPDYYYASEYGYWGQGTQVTVSS”: “low polyreactivity”. To “QVQLVESGGGLVQAGGSLRLSCAASGSIFEYNAMGWYRQAPGKERELVAAITRGGNTYYADSVKGRFTISRDNAKNTVYLQMNSLKPEDTAVYYCAAVQWYGYPYYSWGQGTQVIVSS” belongs “low polyreactivity”; to “QVQLVESGGGLVQAGGSLRLSCAASGSIFEYNDMGWYRQAPGKEREMVSAISWNGGSTYYADSVKGRFTISRDNAKNTVYLQMNSLKPEDTAVYYCAADGDPLWVASEYDSWGQGTQVTVSS”, “low polyreactivity”.

Turning to “QVQLVESGGGLVQAGGSLRLSCAASGSIFEYYAMGWYRQAPGKEREFVAAISDNGDSTYYADSVKGRFTISRDNAKNTVYLQMNSLKPEDTAVYYCAVRKAYQYGFYYWGQGTQLTVSS”, the “polyreactivity (PSR sort gate)” value is “low polyreactivity”. To “QVQLVESGGGLVQAGGSLRLSCAASGSIFEYYAMGWYRQAPGKERELVATITTRGGSTYYADSVKGRFTLSRDNAKNTVSLQMKCLKPEDTAVYYCNARAAYYGRGTLLRRNYWGQGTQVTVSS” belongs “high polyreactivity”; to “QVQLVESGGGLVQAGGSLRLSCAASGSIFEYYTMGWYRQAPGKERELVAGISWSGGSTYYADSVKGRFTISRDNAKNTVYLQMNSLKPEDTAVYYCAAGRTGWYWDSGSTYRYGYGYWGQGTQVTVSS”, “high polyreactivity”; to “QVQLVESGGGLVQAGGSLRLSCAASGSIFEYYTMGWYRQAPGKERELVATISRSADRTYYADSVKGRFTISRDNAKNTVYLQMNSLKPEDTAVDYCAKRYPRTTQWIYDYWGQGTQVTVSS”, “high polyreactivity”. Consider “QVQLVESGGGLVQAGGSLRLSCAASGSIFFANAMGWYRPAPGKERELVATITSGGSTTYADSLKGRFTISRDNAKNTVYLQMNSLKPEDTAVYYCNADYDYGWVFYSNYDYWGQGTQVTVSS”, for which the “polyreactivity (PSR sort gate)” value is “low polyreactivity”. With “QVQLVESGGGLVQAGGSLRLSCAASGSIFFANAMGWYRQAPGKERELVATITSGGSTTYADSVKGRFTISRDNAKNTVYLQMNSLKPEDTAVYYCNADYDYGWVFYSNYDYWGQGTQVTVSS”, the “polyreactivity (PSR sort gate)” value is recorded as “low polyreactivity”. The same measure for “QVQLVESGGGLVQAGGSLRLSCAASGSIFFDYAMGWDRQAPGKERQLVAAISWTGGSTYYADSVKGRFTISRDNAKNTVYLQMNSLKPEDTAVYYCNARYYSYSSPYDYWGQGTQVTVSS”: “high polyreactivity”; for “QVQLVESGGGLVQAGGSLRLSCAASGSIFFGNAMGWYRQAPGKERELVAAISSRGTSTYYADSVKGRFTISRDNAKNTVYLQMNSLKPEDTAVYYCNKRVRTFRGGPLAGYDYWGQGTQVTVSS”: “high polyreactivity”. Take “QVQLVESGGGLVQAGGSLRLSCAASGSIFFGNAMGWYRQAPGKERELVAAISTTGGSTYYADSVKGRFTISRDNAKNTVYLQMISLKPEDTAVYYCNADRATWWEQWWYDYWGQGTQVTVSS”: the “polyreactivity (PSR sort gate)” value is given as “low polyreactivity”.

For the sequence “QVQLVESGGGLVQAGGSLRLSCAASGSIFFHNAMGWYRQAPGKERELVAAITSSGGRTYYADSVKGRFTISRDNAKNTVYLQMNSLKPEDTAVYYCDASPYGFRRNYYWGQGTQVTVSS”, the “polyreactivity (PSR sort gate)” value is on record as “high polyreactivity”. The same measure for “QVQLVESGGGLVQAGGSLRLSCAASGSIFFPNAMGWYRQAPGKERELVAAITSTSTNYADSVKGRCTISRDNAKNTVYLQMNSLKPEDTAVYYCAADGEFRRAWYEGVYWGQGTQVTVSS”: “low polyreactivity”; for “QVQLVESGGGLVQAGGSLRLSCAASGSIFFPYAMGWYRQAPGKEREFVAAITGSGTSTYYADSVKGRFTISRDNAKNTVYLQMNSLKPEDTAVYYCNAKRDRYFYTVKYDYWGQGTQVTVSS”: “low polyreactivity”. The same measure for “QVQLVESGGGLVQAGGSLRLSCAASGSIFFRYAMGWYRQAPGKERELVARISWGGGRTYYADSVKGRFTISRDNAKNTVYLQMNSLKPEDTAVYYCNRAYWVNPGGFDYWGQGTQVTVSS”: “high polyreactivity”; for “QVQLVESGGGLVQAGGSLRLSCAASGSIFFSYAMGWYRPAPGKERELVAAISSGGSTYYADSVKGRFTISRDNAKNTVYLPMNSLKPEDTAVFYCAARGYRLVPVDFYYWGQGTQVTVSS”: “low polyreactivity”. To “QVQLVESGGGLVQAGGSLRLSCAASGSIFFSYAMGWYRQAPGKERELVAAITSSVDSTYYADSVKGRFTISRDNAKNTVYLQMNSLKPEDTAVYYCAARYRSGYYRYDYWGQGTQVTVSS” belongs “low polyreactivity”; to “QVQLVESGGGLVQAGGSLRLSCAASGSIFFSYAMGWYRQAPGKERELVATITTSGGRTRYADSVKGRFTISRDNAKNTVYLQMNSLKPEDTAVYYCAVRGHFFTYGYWGQGTQVTVSS”, “high polyreactivity”. On to “QVQLVESGGGLVQAGGSLRLSCAASGSIFFTYTMGWYRQAPGKERELVAAISASGGSTYYADSVKGRFTISRDNAKNTVYLQMNSLKPEDTAVYYCNARRRTSFIMYYWGQGTQVTVSS”, for which the “polyreactivity (PSR sort gate)” value is “high polyreactivity”. Consider “QVQLVESGGGLVQAGGSLRLSCAASGSIFFVYDMGWYRQAPGKERELVAGIRWSGGRTSYADSVKGRFTISRDNAKNTVYLQMNRLKPEDAAVYYCAADPRSYFTSEYWGQGTQVTVSS”, for which the “polyreactivity (PSR sort gate)” value is “high polyreactivity”. Consider “QVQLVESGGGLVQAGGSLRLSCAASGSIFFYNAMGWYRQAPGKERELVAAITTRGGSTYYADSVKGRFTISRDNAKNTVYLQMNSLKPEDTAVYYCARSSRGKLDYWGQGTQVTVSS”, for which the “polyreactivity (PSR sort gate)” value is “low polyreactivity”. The same measure for “QVQLVESGGGLVQAGGSLRLSCAASGSIFFYNAMGWYRQAPGKERELVAAITTRGGSTYYADSVKGRFTISRDNAMNTVYLQKNSLKPEDTAVYYCTADYYWTSLAMDSWGQGTQVTVSS”: “low polyreactivity”; for “QVQLVESGGGLVQAGGSLRLSCAASGSIFFYNTMGWYRQAPGKERELVARISRSGGSTYYADSVKGRFTISRDNAKNTVYLQMNSLKPEDTAVYYCAARSAPWRYRYYKPYYYWGQGTQVTVSS”: “high polyreactivity”; for “QVQLVESGGGLVQAGGSLRLSCAASGSIFFYYAMGWYRQAPGKEREFVAHITSSDASTHYADSVKGRFTISRDNAKNTVYLQMNSLKPEDTAVYYCAADRYPGHRERDYWGQGTQVTVSS”: “low polyreactivity”.

With “QVQLVESGGGLVQAGGSLRLSCAASGSIFFYYAMGWYRQAPGKERELVAAITLSDGRTYYADSVKGRFTISRDNAKNTVYLQMNSLKPEDTAVYYCNADTGWYPTGARWHHYDYWGQGTQVTVSS”, the “polyreactivity (PSR sort gate)” value was “high polyreactivity”. The same measure for “QVQLVESGGGLVQAGGSLRLSCAASGSIFGANAMGWYRQAPGKERELVAAISSNGDDTYADSVMGRFTISRDNAKNTVYLQMNSLKPEDTAVYYCAARAERVREYNYWGQGTQVTVSS”: “low polyreactivity”; for “QVQLVESGGGLVQAGGSLRLSCAASGSIFGANVMGWYRQAPGKERELVAGITGSGGSTYADSVKGRFTISRDNAKNTVYFQMNSLKPEDTAVYYCNADTQFALVADFDYWGQGTQVTVSS”: “low polyreactivity”; for “QVQLVESGGGLVQAGGSLRLSCAASGSIFGAYAMGWYRQAPGKERELVAAIDKSTGSTYYADSVKGRFTISRDNAKNTVYLQMNSLKPEDTAVYYCAKDWGVYQYSYDYWGQGTQVTVSS”: “low polyreactivity”. In the case of “QVQLVESGGGLVQAGGSLRLSCAASGSIFGAYAMGWYRQAPGKERELVAAISGSGTSTYYADSVKGRFTISRDNAKNTVYLQMNSLKPDDTAVYYCATAKLTWRSQGLDYWGQGTQVTVSS”, the “polyreactivity (PSR sort gate)” value was “low polyreactivity”.

For “QVQLVESGGGLVQAGGSLRLSCAASGSIFGAYAMGWYRQAPGKERELVAAISSSVDRTYYADSVKGRFTNSRDNAKNTVYLQMNCLKPEDTAVYYCAARWGTRDRTKYYYWGQGTQVTVSS”, the “polyreactivity (PSR sort gate)” value is “high polyreactivity”.

As for “QVQLVESGGGLVQAGGSLRLSCAASGSIFGAYAMGWYRQAPGKERELVAVIRWGGGSTYADSVKGRFTISRDNAKNTVYLQMNRLKPEDTAVYYCNRDKSWADLYSHAYDYWGQGTQVTVSS”, the “polyreactivity (PSR sort gate)” value is “low polyreactivity”.

With “QVQLVESGGGLVQAGGSLRLSCAASGSIFGAYMGWYRQAPGTEREFVAAINRSGSSTYYADSVKGRFTISRDNAKNTVYLQMNSLKPEDTAVYYCAAKYPGGETYPFDYWGQGTQVTVSS”, the “polyreactivity (PSR sort gate)” value is “low polyreactivity”. To “QVQLVESGGGLVQAGGSLRLSCAASGSIFGAYTMGGYRQAPGKERELVAAISIGGSTNYADSVKGRFTISRDYAKNTVYLQMNSLKPEDSAVYYCNAEPDLEDWWWAIGLYDYWGQGTQVTVSS” belongs “high polyreactivity”; to “QVQLVESGGGLVQAGGSLRLSCAASGSIFGAYTMGWYRPAPGKERELVAALSIGGSTNYADSVKGRFTISRDNAKNTVYLQMNSLKPEDTAVYYCNAEPHREDWWWAIGLYDYWGQGTQVTVSS”, “high polyreactivity”; to “QVQLVESGGGLVQAGGSLRLSCAASGSIFGAYTMGWYRQAPGKERELVAAISRSGSTYYADSVKGRFTISRDNAKNTVYLQMKSLKPEDTAVYYCYGVGYSGLRRYYKYDYWGQGTQVTVSS”, “high polyreactivity”. For the sequence “QVQLVESGGGLVQAGGSLRLSCAASGSIFGAYVMGWYRQAPGKERELVAAISRSGASTYYADSVKGRFTISRDNAKNTVYLQMNSLKPEDTAVYYCAARDRQRVSYCYWGQGTQVTVSS”, the “polyreactivity (PSR sort gate)” value is “high polyreactivity”.
